How the values were obtained:
[1] = molecular target: α/β TCR/CD3 complex on Jurkat, Clone E6-1 cells (human) (UniProt P07766); test: flow cytometry on Jurkat Clone E6-1 cells, Fab titration 10 µg/ml to 10 ng/ml; AUC of MFI vs log concentration; the reference itself, set to zero
[2] = molecular target: α/β TCR/CD3 complex on Jurkat, Clone E6-1 cells (human) (UniProt P07766); test: flow cytometry on Jurkat Clone E6-1 cells, Fab titration 10 µg/ml to 10 ng/ml; EC50 of MFI, fold decrease vs TPP-1374
[3] = molecular target: α/β TCR/CD3 complex on Jurkat, Clone E6-1 cells (human) (UniProt P07766); test: flow cytometry on Jurkat Clone E6-1 cells, Fab titration 10 µg/ml to 10 ng/ml; AUC of MFI vs log concentration, gain vs TPP-1374

Chain of UniProt P07766 (P07766 23-207, chain 1 of 4): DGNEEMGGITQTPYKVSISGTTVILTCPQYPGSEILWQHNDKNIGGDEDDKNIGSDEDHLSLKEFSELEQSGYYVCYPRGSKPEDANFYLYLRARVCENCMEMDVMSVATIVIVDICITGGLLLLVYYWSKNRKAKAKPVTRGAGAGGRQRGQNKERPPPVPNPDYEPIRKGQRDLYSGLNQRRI
Chain of UniProt P07766 (P09693 23-182, chain 2 of 4, further chain): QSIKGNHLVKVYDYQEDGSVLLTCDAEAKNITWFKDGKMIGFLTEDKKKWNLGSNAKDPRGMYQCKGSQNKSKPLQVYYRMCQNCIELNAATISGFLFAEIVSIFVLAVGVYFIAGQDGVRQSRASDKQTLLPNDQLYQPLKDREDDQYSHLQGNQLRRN
Chain of UniProt P07766 (P04234 22-171, chain 3 of 4, further chain): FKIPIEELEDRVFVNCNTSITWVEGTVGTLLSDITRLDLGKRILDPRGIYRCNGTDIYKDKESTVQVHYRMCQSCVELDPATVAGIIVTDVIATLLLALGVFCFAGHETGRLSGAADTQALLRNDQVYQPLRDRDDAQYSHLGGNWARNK
Chain of UniProt P07766 (P20963 22-164, chain 4 of 4, further chain): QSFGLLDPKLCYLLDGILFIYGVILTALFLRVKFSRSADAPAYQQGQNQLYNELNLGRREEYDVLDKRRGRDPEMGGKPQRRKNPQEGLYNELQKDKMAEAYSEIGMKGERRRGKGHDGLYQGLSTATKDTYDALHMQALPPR

% gain in binding AUC [1] [%]	fold decrease in EC50 [2] [fold]	% gain in binding AUC [3] [%]	Binder
0	–	–	TPP-1374, Fab fragment of BMA031 (V36) (Fab, V domains shown) VH: EVQLVQSGAEVKKPGASVKVSCKASGYKFTSYVMHWVRQAPGQGLEWMGYINPYNDVTKYAEKFQGRVTLTSDTSTSTAYMELSSLRSEDTAVHYCARGSYYDYEGFVYWGQGTLVTVSS VL: QIQMTQSPSSLSASVGDRVTITCSATSSVSYMHWYQQKPGKAPKRWIYDTSKLASGVPSRFSGSGSGTDYTLTISSLQPEDAATYYCQQWSSNPLTFGGGTKVEIKR
–	2.1	87	TPP-1375 Fab fragment (Fab, V domains shown) VH: EVQLVQSGAEVKKPGASVKVSCKASGYKFRSYVMHWVRQAPGQGLEWMGYINPYNDVTKYAEKFQGRVTLTSDTSTSTAYMELSSLRSEDTAVHYCARGSYYDYEGFVYWGQGTLVTVSS VL: QIQMTQSPSSLSASVGDRVTITCSATSSVSYMHWYQQKPGKAPKRWIYDTSKLASGVPSRFSGSGSGTDYTLTISSLQPEDAATYYCQQWSSNPLTFGGGTKVEIKR
